Laboratory results: patent publication US20070054846A1, “Bcl-w structure and uses therefor” (priority 2002, published 2007)

Columns and labels:
Format in all cases: binding
Bcl-xLΔC24 = target: T1, Bcl-xLΔC24 (Homo sapiens, UniProt Q07817); experiment: Co-immunoprecipitation / GST pull-down; conditions: C-terminally truncated Bcl-xL (ΔC24)
T1 construct: expressed in transfected cells
Excerpt: (§1) Bcl-xL and Bcl-2 also contain hydrophobic residues at their C-termini, similar to those found in Bcl-w (FIG. 1C), yet the low level of sequence identity following α8 and the absence of 3D-structural information, makes prediction of their conformation difficult. Since BCl-xL, like Bcl-w, is only partially membrane-bound in healthy cells (Hsu et al., 1997), we compared the ability of FLAG-tagged full-length Bcl-xL or a C-terminally truncated mutant (ΔC24) to bind to BimL or the […]L94A B3 mutant.
Direct interactions between Bcl-w and BimL were monitored using GST pull-down experiments. These were performed in 100 μl of PBS (phosphate buffered saline pH 7.3) containing 2 mM DTT. Typically excess soluble proteins were added to equivalent amounts of resin bound proteins. After incubation at room temperature for 30 minutes the resin was pelleted and then washed twice with 200 μl of PBS containing 0.2% Tween 20. […]
(§2) Cell culture, stable transfections into FDC-P1, transient transfections into 293T human embryonic kidney cells, metabolic labelling with ^35S-methionine/cysteine (NEN) and co-immunoprecipitation have been previously described (O'Connor et al., 1998, Moriishi et al., 1999; Huang et al., 1998; Wilson-Annan et al., 2003). […] The immunoprecipitates were resolved by SDS-PAGE (Novex), transferred onto nitrocellulose membranes (APB) and the proteins detected by fluorography (Amplify; APB).

full-length Bcl-xL [1] = target: T2, full-length Bcl-xL (Homo sapiens, UniProt Q07817); experiment: Co-immunoprecipitation from cell extracts; conditions: FLAG-tagged full-length Bcl-xL
T2 construct: FLAG-tagged full-length Bcl-xL or a C-terminally truncated mutant (ΔC24); expressed in transfected cells
T2 sequence (Q07817 whole entry, species assumed, the tested form may be a part): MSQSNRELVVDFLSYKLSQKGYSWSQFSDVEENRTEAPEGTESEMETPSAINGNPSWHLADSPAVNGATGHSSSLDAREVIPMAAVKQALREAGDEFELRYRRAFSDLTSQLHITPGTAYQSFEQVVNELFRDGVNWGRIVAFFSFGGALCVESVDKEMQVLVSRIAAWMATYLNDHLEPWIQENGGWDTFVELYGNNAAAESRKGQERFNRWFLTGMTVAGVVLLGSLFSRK
Excerpt: as §1
as §2, with “2003). Briefly, mammalian pEF-based expression vectors for Bcl-w, BCl-xL, Bim, Bmf, Bad and Bik (O'Connor et al., 1998, Huang et al., 1998; Moriishi et al., 1999; Wilson-Annan et al., 2003) were transiently transfected using liposome mediated transfection (Lipofectamine™; Invitrogen).” for “2003).”

full-length Bcl-xL [2] = target: T2, full-length Bcl-xL; experiment: GST pull-down
Excerpt: as §1
Direct interactions between Bcl-w and BimL were monitored using GST pull-down experiments. These were performed in 100 μl of PBS (phosphate buffered saline pH 7.3) containing 2 mM DTT. Typically excess soluble proteins were added to equivalent amounts of resin bound proteins. After incubation at room temperature for 30 minutes the resin was pelleted and then washed twice with 200 μl of PBS containing 0.2% Tween 20. After removal of the second wash 10 μl of SDS-PAGE sample buffer was added to each sample and the samples were boiled then loaded onto 16% polyacrylamide gels that were electrophoresed and stained with Coomassie Blue R250. The staining intensity of the bound soluble protein indicated the strength of the interaction between the two proteins.

T1 sequence (Q07817 1-209 limits assumed, stated change not applied): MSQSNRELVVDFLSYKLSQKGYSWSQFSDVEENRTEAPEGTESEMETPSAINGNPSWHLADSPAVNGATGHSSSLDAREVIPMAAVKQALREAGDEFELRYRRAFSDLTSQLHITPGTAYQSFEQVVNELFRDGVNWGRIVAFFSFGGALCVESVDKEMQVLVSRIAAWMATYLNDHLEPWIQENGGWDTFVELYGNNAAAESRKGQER

association in cell extracts (full-length Bcl-xL [1]): associates only with wild-type BimL | association in GST pull-down (full-length Bcl-xL [2]): more tightly with wild-type BimL
B1: BimL: Bim isoform BimL, BH3-only protein (protein)
chain: MAKQPSDVSSECDREGGQLQPAERPPQLRPGAPTSLQTEPQDRSPAPMSCDKSTQTPSPPCQAFNHYLSAMASIRQSQEEPEDLRPEIRIAQELRRIGDEFNETYTRRVFANDYREAEDHPQMVILQLLRFIFRLVWRRH
modifications: left off: small tags and cut ends
notes: Bim isoform BimL, BH3-only protein
binding (Bcl-xLΔC24): bound wild-type BimL and the L94A mutant equally
